In patent publication US20150258192A1, “COMPOSITIONS AND METHODS FOR PREVENTING OR TREATING CHRONIC LUNG ALLOGRAFT DYSFUNCTION (CLAD) AND IDIOPATHIC PULMONARY FIBROSIS (IPF)” (priority 2014, published 2015):
No end group written: not given here.

Columns and labels:
Test in all cases: Kinase Profiling Assay
Format in all cases: biochemical
Details in all cases: peptide 100 μM
Pyk2(h) = Pyk2(h) (Homo sapiens, UniProt Q14289)
How it was run: (§1)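 Specificity of MK2 inhibitory peptides is assessed against a panel of 266 human kinases. Kinase transfers a radiolabeled phosphate from ATP onto a positively charged substrate, which is trapped on a negatively charged filter and quantified by scintillation counting against full-activity control; duplicate determinations.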

LOK(h) = target: T1, LOK(h) (Homo sapiens, UniProt O94804)
T1 construct: purchased Millipore
How it was run: as §1

PKCι(h) = target: T2, PKCι(h) (Homo sapiens, UniProt P41743)
T2 sequence (P41743 1-596): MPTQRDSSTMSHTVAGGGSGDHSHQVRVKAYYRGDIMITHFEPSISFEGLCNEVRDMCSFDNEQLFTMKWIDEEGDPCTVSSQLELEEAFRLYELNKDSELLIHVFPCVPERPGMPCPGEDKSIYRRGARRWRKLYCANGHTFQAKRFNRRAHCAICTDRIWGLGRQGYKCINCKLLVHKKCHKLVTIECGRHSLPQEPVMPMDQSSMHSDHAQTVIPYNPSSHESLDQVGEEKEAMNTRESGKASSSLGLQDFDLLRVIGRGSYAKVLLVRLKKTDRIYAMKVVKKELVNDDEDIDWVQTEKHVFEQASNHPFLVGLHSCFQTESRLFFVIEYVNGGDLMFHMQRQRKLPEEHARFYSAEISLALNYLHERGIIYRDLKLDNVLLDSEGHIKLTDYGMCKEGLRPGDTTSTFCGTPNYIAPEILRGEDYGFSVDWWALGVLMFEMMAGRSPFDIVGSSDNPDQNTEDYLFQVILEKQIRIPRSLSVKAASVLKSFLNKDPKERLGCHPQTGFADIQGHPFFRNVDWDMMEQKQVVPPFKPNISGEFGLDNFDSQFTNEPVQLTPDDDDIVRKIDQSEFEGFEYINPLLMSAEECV
How it was run: as §1

CDK7/cyclinH/MAT1(h) = CDK7/cyclinH/MAT1(h) (Homo sapiens, UniProt P50613)
How it was run: as §1

Mer(h) = target: T3, Mer(h) (Homo sapiens, UniProt Q12866)
T3 construct: purchased Millipore
T3 sequence (Q12866 21-999): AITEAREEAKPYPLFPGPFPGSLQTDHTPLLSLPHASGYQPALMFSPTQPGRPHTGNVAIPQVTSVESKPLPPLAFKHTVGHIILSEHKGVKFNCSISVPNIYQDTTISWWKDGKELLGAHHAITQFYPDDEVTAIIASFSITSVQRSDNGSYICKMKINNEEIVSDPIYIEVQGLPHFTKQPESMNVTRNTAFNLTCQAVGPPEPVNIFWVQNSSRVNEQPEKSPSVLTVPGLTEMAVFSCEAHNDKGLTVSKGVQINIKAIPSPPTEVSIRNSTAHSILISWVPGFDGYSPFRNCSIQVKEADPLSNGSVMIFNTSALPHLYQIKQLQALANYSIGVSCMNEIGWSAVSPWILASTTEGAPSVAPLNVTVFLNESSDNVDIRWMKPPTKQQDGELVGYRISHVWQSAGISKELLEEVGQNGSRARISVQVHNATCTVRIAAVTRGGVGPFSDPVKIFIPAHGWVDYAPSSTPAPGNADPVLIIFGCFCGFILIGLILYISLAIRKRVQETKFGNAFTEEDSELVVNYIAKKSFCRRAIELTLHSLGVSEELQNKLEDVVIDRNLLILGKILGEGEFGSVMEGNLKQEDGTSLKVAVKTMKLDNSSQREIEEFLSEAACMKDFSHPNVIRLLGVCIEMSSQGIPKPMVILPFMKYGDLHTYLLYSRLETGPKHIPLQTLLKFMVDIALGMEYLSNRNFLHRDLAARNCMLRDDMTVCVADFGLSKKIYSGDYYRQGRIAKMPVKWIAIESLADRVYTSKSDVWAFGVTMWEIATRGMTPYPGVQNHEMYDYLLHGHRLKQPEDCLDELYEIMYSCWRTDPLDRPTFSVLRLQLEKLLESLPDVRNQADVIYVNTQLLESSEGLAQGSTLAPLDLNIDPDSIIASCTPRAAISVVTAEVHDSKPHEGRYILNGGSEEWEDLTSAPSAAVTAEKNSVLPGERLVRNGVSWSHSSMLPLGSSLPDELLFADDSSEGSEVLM
How it was run: as §1

Hck(h) activated = target: T4, Hck(h) activated (Homo sapiens, UniProt P08631)
T4 construct: purchased Millipore
How it was run: as §1

GCK(h) = target: T5, GCK(h) (Homo sapiens, UniProt Q12851)
T5 construct: purchased Millipore
T5 sequence (Q12851 1-820): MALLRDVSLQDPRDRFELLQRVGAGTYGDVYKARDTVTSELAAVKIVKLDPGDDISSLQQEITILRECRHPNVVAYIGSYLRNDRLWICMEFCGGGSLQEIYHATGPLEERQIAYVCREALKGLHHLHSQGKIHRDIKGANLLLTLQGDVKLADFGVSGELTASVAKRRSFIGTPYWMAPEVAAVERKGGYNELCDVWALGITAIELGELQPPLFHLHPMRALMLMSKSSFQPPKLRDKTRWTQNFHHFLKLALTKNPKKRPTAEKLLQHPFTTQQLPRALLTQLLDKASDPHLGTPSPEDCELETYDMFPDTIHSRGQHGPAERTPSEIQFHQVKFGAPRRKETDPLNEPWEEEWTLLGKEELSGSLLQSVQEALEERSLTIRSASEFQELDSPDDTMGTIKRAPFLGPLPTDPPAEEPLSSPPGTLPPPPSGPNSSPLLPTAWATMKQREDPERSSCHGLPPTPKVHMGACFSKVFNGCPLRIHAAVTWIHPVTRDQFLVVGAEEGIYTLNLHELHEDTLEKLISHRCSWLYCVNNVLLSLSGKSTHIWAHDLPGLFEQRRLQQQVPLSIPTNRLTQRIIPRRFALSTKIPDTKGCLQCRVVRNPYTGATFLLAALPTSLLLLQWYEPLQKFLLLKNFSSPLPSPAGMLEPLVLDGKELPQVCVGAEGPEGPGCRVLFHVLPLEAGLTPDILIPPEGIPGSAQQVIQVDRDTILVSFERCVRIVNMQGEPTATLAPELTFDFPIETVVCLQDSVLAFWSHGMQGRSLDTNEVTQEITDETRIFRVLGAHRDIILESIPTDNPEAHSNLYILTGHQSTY
How it was run: as §1

BTK(h) = BTK(h) (Homo sapiens, UniProt Q06187)
How it was run: as §1

Sequence of CDK7/cyclinH/MAT1(h) (P50613 whole entry): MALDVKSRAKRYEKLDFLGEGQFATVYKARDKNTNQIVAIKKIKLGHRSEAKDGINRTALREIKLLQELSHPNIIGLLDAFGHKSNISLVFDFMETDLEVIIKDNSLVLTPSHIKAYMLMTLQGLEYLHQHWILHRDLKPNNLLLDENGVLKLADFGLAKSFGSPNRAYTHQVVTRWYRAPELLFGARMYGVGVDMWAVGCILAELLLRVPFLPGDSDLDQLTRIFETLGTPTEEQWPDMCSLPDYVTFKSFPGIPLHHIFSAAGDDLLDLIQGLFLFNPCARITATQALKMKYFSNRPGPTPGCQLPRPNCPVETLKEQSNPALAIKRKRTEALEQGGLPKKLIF
Sequence of CDK7/cyclinH/MAT1(h) (P51946 whole entry partner): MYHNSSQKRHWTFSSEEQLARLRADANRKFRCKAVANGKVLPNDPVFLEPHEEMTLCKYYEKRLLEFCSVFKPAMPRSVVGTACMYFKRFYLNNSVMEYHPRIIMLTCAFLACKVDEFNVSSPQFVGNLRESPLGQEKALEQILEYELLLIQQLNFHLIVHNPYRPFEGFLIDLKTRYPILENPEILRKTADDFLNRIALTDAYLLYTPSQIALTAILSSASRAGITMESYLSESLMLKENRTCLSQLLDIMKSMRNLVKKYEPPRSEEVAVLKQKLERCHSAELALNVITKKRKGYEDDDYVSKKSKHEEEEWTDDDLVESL
Sequence of CDK7/cyclinH/MAT1(h) (P51948 whole entry partner): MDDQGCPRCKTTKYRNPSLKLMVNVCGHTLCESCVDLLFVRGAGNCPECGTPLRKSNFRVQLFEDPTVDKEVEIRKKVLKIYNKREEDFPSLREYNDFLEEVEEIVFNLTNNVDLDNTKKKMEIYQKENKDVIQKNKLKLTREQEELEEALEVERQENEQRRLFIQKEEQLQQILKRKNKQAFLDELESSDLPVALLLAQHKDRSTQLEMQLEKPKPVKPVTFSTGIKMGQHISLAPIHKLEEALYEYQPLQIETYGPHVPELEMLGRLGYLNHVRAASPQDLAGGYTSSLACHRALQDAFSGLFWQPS
T1 sequence (O94804 whole entry): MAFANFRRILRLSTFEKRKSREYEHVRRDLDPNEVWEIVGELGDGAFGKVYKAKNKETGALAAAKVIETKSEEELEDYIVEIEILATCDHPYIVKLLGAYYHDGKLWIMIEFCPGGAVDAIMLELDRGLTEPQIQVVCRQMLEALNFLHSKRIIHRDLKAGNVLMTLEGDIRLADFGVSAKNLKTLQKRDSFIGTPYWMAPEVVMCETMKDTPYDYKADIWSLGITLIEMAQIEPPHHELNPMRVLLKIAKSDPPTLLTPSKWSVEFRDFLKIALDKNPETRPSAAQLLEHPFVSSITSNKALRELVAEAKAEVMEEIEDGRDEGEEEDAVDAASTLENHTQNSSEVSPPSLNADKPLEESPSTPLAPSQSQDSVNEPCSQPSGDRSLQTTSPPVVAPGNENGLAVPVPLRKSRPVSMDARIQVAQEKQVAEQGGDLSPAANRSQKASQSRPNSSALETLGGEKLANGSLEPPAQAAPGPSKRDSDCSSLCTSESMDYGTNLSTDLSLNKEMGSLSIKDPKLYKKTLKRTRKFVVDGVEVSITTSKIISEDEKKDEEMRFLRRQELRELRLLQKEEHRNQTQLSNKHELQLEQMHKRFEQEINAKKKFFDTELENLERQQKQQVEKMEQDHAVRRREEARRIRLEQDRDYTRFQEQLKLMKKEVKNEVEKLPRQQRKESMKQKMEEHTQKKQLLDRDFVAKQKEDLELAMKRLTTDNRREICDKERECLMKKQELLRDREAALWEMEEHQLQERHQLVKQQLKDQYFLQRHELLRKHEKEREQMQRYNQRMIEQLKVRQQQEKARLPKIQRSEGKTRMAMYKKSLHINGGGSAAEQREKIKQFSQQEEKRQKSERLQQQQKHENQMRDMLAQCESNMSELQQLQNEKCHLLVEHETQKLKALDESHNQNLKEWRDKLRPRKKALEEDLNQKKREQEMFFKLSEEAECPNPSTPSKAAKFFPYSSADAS
Sequence of BTK(h) (Q06187 whole entry): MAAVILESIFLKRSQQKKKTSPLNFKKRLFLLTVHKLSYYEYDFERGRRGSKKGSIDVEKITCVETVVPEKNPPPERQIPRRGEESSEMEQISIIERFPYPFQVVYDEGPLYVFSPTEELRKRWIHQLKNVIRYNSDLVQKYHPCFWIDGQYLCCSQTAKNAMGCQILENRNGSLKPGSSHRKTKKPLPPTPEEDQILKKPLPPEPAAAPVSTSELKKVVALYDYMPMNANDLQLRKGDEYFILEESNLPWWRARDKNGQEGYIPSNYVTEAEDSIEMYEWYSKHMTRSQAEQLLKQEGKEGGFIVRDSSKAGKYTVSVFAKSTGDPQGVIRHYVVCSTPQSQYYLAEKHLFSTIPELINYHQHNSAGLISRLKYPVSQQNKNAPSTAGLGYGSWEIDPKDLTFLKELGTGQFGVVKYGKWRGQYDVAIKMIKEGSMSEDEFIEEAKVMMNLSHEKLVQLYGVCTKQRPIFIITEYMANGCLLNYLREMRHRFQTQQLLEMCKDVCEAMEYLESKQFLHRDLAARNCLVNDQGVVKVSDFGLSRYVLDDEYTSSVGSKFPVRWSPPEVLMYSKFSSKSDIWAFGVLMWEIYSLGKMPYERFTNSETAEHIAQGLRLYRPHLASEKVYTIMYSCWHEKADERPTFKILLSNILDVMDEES
T4 sequence (P08631 whole entry): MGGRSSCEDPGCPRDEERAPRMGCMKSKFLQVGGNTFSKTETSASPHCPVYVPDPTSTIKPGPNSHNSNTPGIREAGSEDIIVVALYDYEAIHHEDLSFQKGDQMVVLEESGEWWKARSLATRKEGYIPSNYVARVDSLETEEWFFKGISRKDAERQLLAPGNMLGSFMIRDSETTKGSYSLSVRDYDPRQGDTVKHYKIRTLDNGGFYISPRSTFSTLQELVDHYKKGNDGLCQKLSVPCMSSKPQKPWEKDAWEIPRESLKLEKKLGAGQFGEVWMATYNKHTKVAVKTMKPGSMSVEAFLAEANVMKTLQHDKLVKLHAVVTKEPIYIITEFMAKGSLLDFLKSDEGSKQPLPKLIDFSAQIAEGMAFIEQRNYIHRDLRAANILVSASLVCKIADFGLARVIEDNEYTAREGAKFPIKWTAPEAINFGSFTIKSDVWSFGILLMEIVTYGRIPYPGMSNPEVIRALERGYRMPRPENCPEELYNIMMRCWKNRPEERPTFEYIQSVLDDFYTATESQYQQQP
Sequence of Pyk2(h) (Q14289 whole entry): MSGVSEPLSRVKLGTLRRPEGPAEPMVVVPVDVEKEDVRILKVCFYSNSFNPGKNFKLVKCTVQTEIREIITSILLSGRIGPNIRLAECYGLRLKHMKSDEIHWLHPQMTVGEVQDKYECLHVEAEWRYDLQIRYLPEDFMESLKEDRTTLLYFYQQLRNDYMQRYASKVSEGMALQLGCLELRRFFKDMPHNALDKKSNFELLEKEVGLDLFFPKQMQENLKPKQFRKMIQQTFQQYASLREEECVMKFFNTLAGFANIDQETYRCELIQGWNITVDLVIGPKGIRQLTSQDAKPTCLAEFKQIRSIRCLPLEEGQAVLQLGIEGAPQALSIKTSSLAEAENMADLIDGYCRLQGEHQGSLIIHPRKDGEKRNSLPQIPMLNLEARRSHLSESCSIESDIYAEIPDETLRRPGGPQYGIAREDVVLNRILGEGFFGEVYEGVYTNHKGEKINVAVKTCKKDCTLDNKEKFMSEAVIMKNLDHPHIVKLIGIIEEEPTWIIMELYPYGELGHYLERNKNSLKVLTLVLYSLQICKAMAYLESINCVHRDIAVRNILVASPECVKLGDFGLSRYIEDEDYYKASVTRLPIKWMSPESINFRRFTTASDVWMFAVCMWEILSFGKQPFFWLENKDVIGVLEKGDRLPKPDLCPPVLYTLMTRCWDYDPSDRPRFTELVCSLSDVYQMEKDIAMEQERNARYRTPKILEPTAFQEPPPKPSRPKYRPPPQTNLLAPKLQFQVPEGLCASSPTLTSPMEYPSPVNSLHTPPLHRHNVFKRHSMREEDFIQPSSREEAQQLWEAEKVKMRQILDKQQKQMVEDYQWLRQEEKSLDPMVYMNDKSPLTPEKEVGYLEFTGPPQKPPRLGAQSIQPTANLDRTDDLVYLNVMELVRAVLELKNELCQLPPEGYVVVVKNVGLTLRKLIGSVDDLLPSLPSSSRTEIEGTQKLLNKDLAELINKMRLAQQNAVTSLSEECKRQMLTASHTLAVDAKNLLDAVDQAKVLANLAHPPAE

| Sequence | % activity (Pyk2(h)) [%] | % activity (LOK(h)) [%] | % activity (PKCι(h)) [%] | % activity (CDK7/cyclinH/MAT1(h)) [%] | % activity (Mer(h)) [%] | % activity (Hck(h) activated) [%] | % activity (GCK(h)) [%] | % activity (BTK(h)) [%] |
| --- | --- | --- | --- | --- | --- | --- | --- | --- |
| FAKLAARLYRKALARQLGVAA [MMI-0300] | 47 | 37 | 68 | 65 | 52 | 82 | 70 |  |
| HRRIKAWLKKIKALARQLGVAA (Mammal) [MMI-0500] | 46 | 7 | 7 | 15 | 17 | 67 | 30 | 18 |
| KAFAKLAARLYRKALARQLGVAA [MMI-0400] | 34 | 18 | 46 | 47 | 50 | 81 | 66 | 94 |
| YARAAARQARAKALARQLGVAA [MMI-0100] |  | 37 | 110 |  | 47 |  | 98 |  |
| YARAAARQARAKALNRQLGVA (Mammal) [MMI-0200] | 127 | 67 | 97 | 67 | 90 | 100 | 99 | 100 |
